Measurements from patent US20210179686A1 (Memorial Sloan Kettering, published 2021).

What was measured:
[1] = biological target: T1, R2-EE12RR345L CD28-9c delta; test: double-transduced C1498 cells sorted with CD34 beads by the captured Q2 zipper (FIG. 19)
T1 construct: also called tandem circular CD20 mimotope-tagged capture leucine zipper
T1 chain: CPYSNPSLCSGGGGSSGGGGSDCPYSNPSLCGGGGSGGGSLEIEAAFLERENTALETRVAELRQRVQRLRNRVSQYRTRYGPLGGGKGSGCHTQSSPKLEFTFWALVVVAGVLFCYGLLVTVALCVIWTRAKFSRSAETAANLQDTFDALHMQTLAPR
Experimental: Next, the cells were magnetically sorted with CD34 beads. Subsequently, the cells were incubated with antibodies in the presence of complement.

[2] = biological target: T2, RR12EE345L linker EE12RR345L CD80 (mouse (CD80 part, SEQ ID NO: 111)); test: co-transduced T cells sorted with anti-FLAG magnetic beads (FIG. 21A)
T2 construct: left out; Expressed on T cells from a vector that also carries the CD20-streptag-CAR; also called CD80 functionalized leucine zipper
T2 chain: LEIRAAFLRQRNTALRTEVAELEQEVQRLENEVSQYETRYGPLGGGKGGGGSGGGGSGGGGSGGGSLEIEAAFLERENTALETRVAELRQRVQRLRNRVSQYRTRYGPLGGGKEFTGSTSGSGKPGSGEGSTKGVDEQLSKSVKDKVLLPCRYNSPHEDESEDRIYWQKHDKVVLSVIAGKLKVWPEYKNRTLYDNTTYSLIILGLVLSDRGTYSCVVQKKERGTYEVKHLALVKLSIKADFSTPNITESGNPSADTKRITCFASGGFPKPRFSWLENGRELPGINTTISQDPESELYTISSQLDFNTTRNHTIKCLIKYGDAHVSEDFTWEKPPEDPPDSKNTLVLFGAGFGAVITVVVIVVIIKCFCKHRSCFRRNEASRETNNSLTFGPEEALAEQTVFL
Excerpt: T cells were transduced with vectors encoding (a) FLAG-RR12EE345L iCaspase9 CD19-myc-CAR and (b) RR12EE345L linker EE12RR345L CD80 CD20-streptag-CAR. Next, cells were magnetically sorted with anti-FLAG magnetic beads.

[3] = biological target: T3, 1M mutant: RR123E45L linker EE12RR345L membrane-bound construct; test: FLAG staining of co-transduced C1498 cells, flow cytometry (FIG. 20)
T3 chain: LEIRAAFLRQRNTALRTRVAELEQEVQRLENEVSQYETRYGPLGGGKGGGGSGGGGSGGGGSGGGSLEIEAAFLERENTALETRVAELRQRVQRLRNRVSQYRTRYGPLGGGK
Excerpt: (§1) C1498 cells were co-transduced with the FLAG-RR12EE345L GFP vector and one of the six mutants as part of RR12EE345L linker EE12RR345L BFP vector constructs. […] Thus, mutating the […] leucine zipper at “g” position residues to include repulsive amino acid interactions can reduce the degree of blocking by the linked […]-based mutant leucine zipper.

[4] = biological target: T4, 3N mutant: EE12R3E45L linker EE12RR345L membrane-bound construct; test: as above
T4 chain: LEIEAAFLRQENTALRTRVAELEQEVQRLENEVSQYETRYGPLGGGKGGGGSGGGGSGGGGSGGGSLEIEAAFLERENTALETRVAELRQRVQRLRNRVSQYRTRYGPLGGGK
Excerpt: as §1

[5] = biological target: T5, 2N mutant: EE12345L linker EE12RR345L membrane-bound construct; test: as above
T5 chain: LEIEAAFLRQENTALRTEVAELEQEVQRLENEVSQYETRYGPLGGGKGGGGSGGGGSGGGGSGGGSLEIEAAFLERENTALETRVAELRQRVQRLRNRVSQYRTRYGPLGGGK
Excerpt: as §1

[6] = biological target: T6, 1N mutant: E1R2EE345L linker EE12RR345L membrane-bound construct; test: as above
T6 chain: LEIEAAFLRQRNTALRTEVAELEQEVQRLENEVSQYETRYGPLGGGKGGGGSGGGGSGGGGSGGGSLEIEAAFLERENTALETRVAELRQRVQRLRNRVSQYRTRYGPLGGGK
Excerpt: as §1

[7] = biological target: T7, 2M mutant: RR1234E5L linker EE12RR345L membrane-bound construct; test: as above
T7 chain: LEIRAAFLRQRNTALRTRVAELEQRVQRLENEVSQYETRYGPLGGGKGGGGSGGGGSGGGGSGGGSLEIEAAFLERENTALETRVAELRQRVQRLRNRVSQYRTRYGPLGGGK
Excerpt: as §1

[8] = biological target: T8, 3C mutant: RR12345L linker EE12RR345L membrane-bound construct; test: as above
T8 chain: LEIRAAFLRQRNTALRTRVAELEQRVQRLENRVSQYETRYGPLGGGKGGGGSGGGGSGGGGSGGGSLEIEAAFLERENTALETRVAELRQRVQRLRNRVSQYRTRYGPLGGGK
Excerpt: as §1

Measured: binding result

B1: Q2-RR12EE345L (designed binder)
chain: GSGELPTQGTFSNVSTNVSGGGGSGGGSELPTQGTFSNVSTNVSGGGGSGGGSALGLEIRAAFLRQRNTALRTEVAELEQEVQRLENEVSQYETRYGPLGGGK
binds: [1]

B2: FLAG-RR12EE345L leucine zipper (secreted, affinity-tagged) (designed binder)
chain: DYKDDDDKLEIRAAFLRQRNTALRTEVAELEQEVQRLENEVSQYETRYGPLGGGK
notes: also called RR12EE345L-FLAG
binds: [2] | [3] | [4] | [5] | [6] | [7] | [8]
